According to article PMC3401526:

Assays:
[1] = biological target: Cav3.2 T-type calcium channel α 1H subunit (UniProt O95180)
[2] = biological target: Cav3.2 T-type calcium channel α 1H subunit (UniProt O95180); remark: listed apart in the source

Sequence of UniProt O95180 (O95180 whole entry): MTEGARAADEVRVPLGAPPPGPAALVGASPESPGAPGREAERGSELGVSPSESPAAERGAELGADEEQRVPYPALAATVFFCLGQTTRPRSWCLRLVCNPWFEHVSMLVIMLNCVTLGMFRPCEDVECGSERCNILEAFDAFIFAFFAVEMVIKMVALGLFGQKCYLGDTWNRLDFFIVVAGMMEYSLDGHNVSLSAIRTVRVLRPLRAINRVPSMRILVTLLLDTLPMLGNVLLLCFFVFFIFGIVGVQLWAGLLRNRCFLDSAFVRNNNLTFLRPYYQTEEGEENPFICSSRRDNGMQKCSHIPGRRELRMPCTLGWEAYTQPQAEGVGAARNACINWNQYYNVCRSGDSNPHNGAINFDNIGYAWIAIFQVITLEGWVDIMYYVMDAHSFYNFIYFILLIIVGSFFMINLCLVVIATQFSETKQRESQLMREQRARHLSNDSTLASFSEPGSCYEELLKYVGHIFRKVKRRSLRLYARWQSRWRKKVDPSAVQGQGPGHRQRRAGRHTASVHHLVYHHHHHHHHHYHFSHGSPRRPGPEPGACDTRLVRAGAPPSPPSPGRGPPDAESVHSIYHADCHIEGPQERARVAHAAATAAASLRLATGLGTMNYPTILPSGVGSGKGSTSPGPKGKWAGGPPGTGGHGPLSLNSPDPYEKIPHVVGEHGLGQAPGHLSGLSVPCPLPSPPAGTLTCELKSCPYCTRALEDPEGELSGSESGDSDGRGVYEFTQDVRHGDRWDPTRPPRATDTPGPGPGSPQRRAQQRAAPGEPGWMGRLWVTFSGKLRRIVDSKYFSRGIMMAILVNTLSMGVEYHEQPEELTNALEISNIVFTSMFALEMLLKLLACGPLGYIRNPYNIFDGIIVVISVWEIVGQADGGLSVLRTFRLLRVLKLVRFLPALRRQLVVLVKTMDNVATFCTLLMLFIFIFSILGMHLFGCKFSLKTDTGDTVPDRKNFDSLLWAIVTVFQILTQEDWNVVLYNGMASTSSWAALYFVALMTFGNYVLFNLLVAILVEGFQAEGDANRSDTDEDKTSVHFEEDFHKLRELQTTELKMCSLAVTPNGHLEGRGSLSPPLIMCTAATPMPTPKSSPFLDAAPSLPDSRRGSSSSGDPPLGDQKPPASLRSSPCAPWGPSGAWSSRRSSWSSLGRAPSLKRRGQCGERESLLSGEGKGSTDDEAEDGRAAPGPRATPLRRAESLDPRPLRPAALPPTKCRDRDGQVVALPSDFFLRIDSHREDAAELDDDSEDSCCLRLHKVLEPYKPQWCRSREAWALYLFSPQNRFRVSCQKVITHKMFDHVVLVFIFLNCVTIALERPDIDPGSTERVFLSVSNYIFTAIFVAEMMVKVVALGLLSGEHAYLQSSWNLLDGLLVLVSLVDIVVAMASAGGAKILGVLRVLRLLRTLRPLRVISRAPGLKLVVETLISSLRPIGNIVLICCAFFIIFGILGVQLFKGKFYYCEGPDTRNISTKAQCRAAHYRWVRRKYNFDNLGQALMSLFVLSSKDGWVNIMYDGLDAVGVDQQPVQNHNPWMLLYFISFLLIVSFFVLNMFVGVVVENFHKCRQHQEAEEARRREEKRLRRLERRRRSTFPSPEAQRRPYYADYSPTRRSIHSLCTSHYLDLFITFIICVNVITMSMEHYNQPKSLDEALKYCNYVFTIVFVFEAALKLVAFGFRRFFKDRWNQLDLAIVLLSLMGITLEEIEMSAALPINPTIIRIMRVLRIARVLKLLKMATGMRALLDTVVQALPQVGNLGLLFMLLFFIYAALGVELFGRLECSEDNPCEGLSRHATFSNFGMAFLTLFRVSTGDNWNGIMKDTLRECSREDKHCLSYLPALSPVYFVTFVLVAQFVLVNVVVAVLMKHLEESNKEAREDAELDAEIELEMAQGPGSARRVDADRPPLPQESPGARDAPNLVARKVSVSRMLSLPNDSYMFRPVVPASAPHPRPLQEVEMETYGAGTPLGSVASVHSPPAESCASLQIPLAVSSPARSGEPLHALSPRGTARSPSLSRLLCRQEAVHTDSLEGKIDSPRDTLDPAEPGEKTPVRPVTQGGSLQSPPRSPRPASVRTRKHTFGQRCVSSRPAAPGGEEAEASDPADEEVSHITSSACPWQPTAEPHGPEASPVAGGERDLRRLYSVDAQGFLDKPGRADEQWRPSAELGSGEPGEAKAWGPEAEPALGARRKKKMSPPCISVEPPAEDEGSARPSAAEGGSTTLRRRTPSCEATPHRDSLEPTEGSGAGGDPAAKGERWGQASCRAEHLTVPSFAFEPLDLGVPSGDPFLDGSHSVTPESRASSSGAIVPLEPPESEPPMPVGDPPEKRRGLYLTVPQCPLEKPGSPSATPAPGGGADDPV

How did the percentage of increase in calcium influx through Cav3.2 with respect to control, SQAP with shorter depolarization (0.5 ms at +50 mV); not a rescue of the ΔKelch effect [1] turn out when “ΔKelch, truncated KLHL1 mutant lacking the Kelch domains (domain or fragment)” was run?
The percentage of increase in calcium influx through Cav3.2 with respect to control, SQAP with shorter depolarization (0.5 ms at +50 mV); not a rescue of the ΔKelch effect was 38 % increase.

And the percentage of increase in calcium influx through Cav3.2 with respect to control, SQAP with shorter hyperpolarization (6 ms at -90 mV); not a rescue of the ΔKelch effect [1]?
The percentage of increase in calcium influx through Cav3.2 with respect to control, SQAP with shorter hyperpolarization (6 ms at -90 mV); not a rescue of the ΔKelch effect was 31 % increase.

And the percentage of increase in calcium influx through Cav3.2 with respect to control, square action potential (SQAP), first stimulus [2]?
Its percentage of increase in calcium influx through Cav3.2 with respect to control, square action potential (SQAP), first stimulus is 25 % increase.
